Measurements from PMC5591402, “Facile Affinity Maturation of Antibody Variable Domains Using Natural Diversity Mutagenesis” (Frontiers in Immunology, 2017).
Where no end group is shown, it is not given here.

T1: TAMRA-labeled α-synuclein peptide (Homo sapiens, also: TAMRA fluorophore, position not given here)
T1 construct: the TAMRA peptide is called the α-synuclein peptide; also called C-terminal α-synuclein peptide; antigen; source: synthetic peptide, bought: Genemed Synthesis Inc
T1 chain: GYQDYEPEA


Key:
[1] = molecular target: T1, TAMRA-labeled α-synuclein peptide; experiment: fluorescence polarisation; VHH titrated (0.8 nM-1.6 µM) against 2 nM TAMRA-labeled α-synuclein peptide; PBS with 0.001% BSA and 0.001% Tween 20; room temperature, 3 h; fit that accounts for antibody not in excess of antigen; settings: both partners purified
[2] = molecular target: T1, TAMRA-labeled α-synuclein peptide; experiment: fluorescence polarisation; alanine scan: single VHH concentrations (44, 133 and 400 nM) with 2 nM TAMRA-labeled α-synuclein peptide; background-subtracted signal of the mutant divided by that of wild type; settings: both partners purified

binding relative to wild type (normalised polarisation signal) [2] [%]	binding result [1]	Binder	further results
–	binds	N2.16 VHH (VHH, PDB 2X6M) with mutations in CDR2 and CDR3; One of the 17 unique variants of the enriched library) VHH: QGQLVESGGGSVQAGGSLRLSCAASGIDSSSYCMGWFRQRPGKEREGVGRINGWSGVKTAYADSVKDRFTISRDNAENTVYLQMNSLKPEDTAIYYCAAKSSPGYCGGTWYNFGYWGQGTQVTVSS	–
–	binds	N2.12 reversion mutant F96 (VHH, as the VHH chain of m3 (N2.12) with S96 reverted to the wild-type F96; PDB 2X6M); Kabat numbering; also called reversion mutation (F96)) VHH: QGQLVESGGGSVQAGGSLRLSCAASGIDSSSYCMGWFRQRPGKEREGVGRINGWRGIKTAYADSVKDRFTISRDNAENTVYLQMNSLKPEDTAIYYCAAKFSPGYCGGTWSNFGYWGQGTQVTVSS	–
–	binds	N2.12 reversion mutant S100d (VHH, as the VHH chain of m3 (N2.12) with T100d reverted to the wild-type S100d; PDB 2X6M); Kabat numbering) VHH: QGQLVESGGGSVQAGGSLRLSCAASGIDSSSYCMGWFRQRPGKEREGVGRINGWRGIKTAYADSVKDRFTISRDNAENTVYLQMNSLKPEDTAIYYCAAKSSPGYCGGSWSNFGYWGQGTQVTVSS	–
–	binds	N2.17 reversion mutant S100d (VHH, as the VHH chain of m4 (N2.17) with T100d reverted to the wild-type S100d; PDB 2X6M); Kabat numbering) VHH: QGQLVESGGGSVQAGGSLRLSCAASGIDSSSYCMGWFRQRPGKEREGVARINGWGGVKTAYADSVKDRFTISRDNAENTVYLQMNSLKPEDTAIYYCAAKSSPGYCGGSWFNFGYWGQGTQVTVSS	–
–	binds	N2.17 reversion mutant L52b (VHH, as the VHH chain of m4 (N2.17) with W52b reverted to the wild-type L52b; PDB 2X6M); Kabat numbering) VHH: QGQLVESGGGSVQAGGSLRLSCAASGIDSSSYCMGWFRQRPGKEREGVARINGLGGVKTAYADSVKDRFTISRDNAENTVYLQMNSLKPEDTAIYYCAAKSSPGYCGGTWFNFGYWGQGTQVTVSS	–
–	binds	N2.12 reversion mutant G53 (VHH, as the VHH chain of m3 (N2.12) with R53 reverted to the wild-type G53; PDB 2X6M); Kabat numbering) VHH: QGQLVESGGGSVQAGGSLRLSCAASGIDSSSYCMGWFRQRPGKEREGVGRINGWGGIKTAYADSVKDRFTISRDNAENTVYLQMNSLKPEDTAIYYCAAKSSPGYCGGTWSNFGYWGQGTQVTVSS	–
–	binds	N2.12 reversion mutant L52b (VHH, as the VHH chain of m3 (N2.12) with W52b reverted to the wild-type L52b; PDB 2X6M); Kabat numbering) VHH: QGQLVESGGGSVQAGGSLRLSCAASGIDSSSYCMGWFRQRPGKEREGVGRINGLRGIKTAYADSVKDRFTISRDNAENTVYLQMNSLKPEDTAIYYCAAKSSPGYCGGTWSNFGYWGQGTQVTVSS	–
–	binds	N2.17 reversion mutant F96 (VHH, as the VHH chain of m4 (N2.17) with S96 reverted to the wild-type F96; PDB 2X6M); Kabat numbering) VHH: QGQLVESGGGSVQAGGSLRLSCAASGIDSSSYCMGWFRQRPGKEREGVARINGWGGVKTAYADSVKDRFTISRDNAENTVYLQMNSLKPEDTAIYYCAAKFSPGYCGGTWFNFGYWGQGTQVTVSS	–
–	binds	N2.17 reversion mutant S100f (VHH, as the VHH chain of m4 (N2.17) with F100f reverted to the wild-type S100f; PDB 2X6M); Kabat numbering; also called reversion mutation S100f) VHH: QGQLVESGGGSVQAGGSLRLSCAASGIDSSSYCMGWFRQRPGKEREGVARINGWGGVKTAYADSVKDRFTISRDNAENTVYLQMNSLKPEDTAIYYCAAKSSPGYCGGTWSNFGYWGQGTQVTVSS	–

Continued, binder first:

Binder	binding relative to wild type (normalised polarisation signal) [2] [%]	binding result [1]	further results
wild-type N2 VHH antibody (VHH, also called NbSyn2; wild-type N2 variable domain; not shown: His6, C-terminal, kept) VHH: QGQLVESGGGSVQAGGSLRLSCAASGIDSSSYCMGWFRQRPGKEREGVARINGLGGVKTAYADSVKDRFTISRDNAENTVYLQMNSLKPEDTAIYYCAAKFSPGYCGGSWSNFGYWGQGTQVTVSS	–	–	Kd [1]: 57.6 nM
N2.12 reversion mutant A49 (VHH, as the VHH chain of m3 (N2.12) with G49 reverted to the wild-type A49; PDB 2X6M); Kabat numbering; also called N2.12 with A49) VHH: QGQLVESGGGSVQAGGSLRLSCAASGIDSSSYCMGWFRQRPGKEREGVARINGWRGIKTAYADSVKDRFTISRDNAENTVYLQMNSLKPEDTAIYYCAAKSSPGYCGGTWSNFGYWGQGTQVTVSS	–	–	fold affinity enhancement relative to wild type [1]: > 7 fold
N2 VHH alanine mutant L52b (VHH, PDB 2X6M) with the stated change; Kabat numbering) VHH: QGQLVESGGGSVQAGGSLRLSCAASGIDSSSYCMGWFRQRPGKEREGVARINGAGGVKTAYADSVKDRFTISRDNAENTVYLQMNSLKPEDTAIYYCAAKFSPGYCGGSWSNFGYWGQGTQVTVSS	> 50	–	–
N2.5 VHH (VHH, PDB 2X6M) with mutations in CDR2 and CDR3; One of the 17 unique variants of the enriched library (1-6 mutations in CDR2 and CDR3)) VHH: QGQLVESGGGSVQAGGSLRLSCAASGIDSSSYCMGWFRQRPGKEREGVARINGLSGVKTAYADSVKDRFTISRDNAENTVYLQMNSLKPEDTAIYYCAAKSSPGYCGGTWFSFGYWGQGTQVTVSS	–	binds	–
N2 VHH alanine mutant S100d (VHH, PDB 2X6M) with the stated change; Kabat numbering) VHH: QGQLVESGGGSVQAGGSLRLSCAASGIDSSSYCMGWFRQRPGKEREGVARINGLGGVKTAYADSVKDRFTISRDNAENTVYLQMNSLKPEDTAIYYCAAKFSPGYCGGAWSNFGYWGQGTQVTVSS	> 50	–	–
N2 VHH alanine mutant N100g (VHH, PDB 2X6M) with the stated change; Kabat numbering) VHH: QGQLVESGGGSVQAGGSLRLSCAASGIDSSSYCMGWFRQRPGKEREGVARINGLGGVKTAYADSVKDRFTISRDNAENTVYLQMNSLKPEDTAIYYCAAKFSPGYCGGSWSAFGYWGQGTQVTVSS	> 50	–	–
N2 VHH alanine mutant G100c (VHH, PDB 2X6M) with the stated change; Kabat numbering) VHH: QGQLVESGGGSVQAGGSLRLSCAASGIDSSSYCMGWFRQRPGKEREGVARINGLGGVKTAYADSVKDRFTISRDNAENTVYLQMNSLKPEDTAIYYCAAKFSPGYCGASWSNFGYWGQGTQVTVSS	> 50	–	–
N2 VHH alanine mutant G53 (VHH, PDB 2X6M) with the stated change; Kabat numbering) VHH: QGQLVESGGGSVQAGGSLRLSCAASGIDSSSYCMGWFRQRPGKEREGVARINGLAGVKTAYADSVKDRFTISRDNAENTVYLQMNSLKPEDTAIYYCAAKFSPGYCGGSWSNFGYWGQGTQVTVSS	> 50	–	–
N2 VHH alanine mutant S97 (VHH, PDB 2X6M) with the stated change; Kabat numbering) VHH: QGQLVESGGGSVQAGGSLRLSCAASGIDSSSYCMGWFRQRPGKEREGVARINGLGGVKTAYADSVKDRFTISRDNAENTVYLQMNSLKPEDTAIYYCAAKFAPGYCGGSWSNFGYWGQGTQVTVSS	> 50	–	–
N2 VHH alanine mutant G99 (VHH, PDB 2X6M) with the stated change; Kabat numbering) VHH: QGQLVESGGGSVQAGGSLRLSCAASGIDSSSYCMGWFRQRPGKEREGVARINGLGGVKTAYADSVKDRFTISRDNAENTVYLQMNSLKPEDTAIYYCAAKFSPAYCGGSWSNFGYWGQGTQVTVSS	> 50	–	–
N2.17 VHH (VHH, PDB 2X6M) with four CDR mutations; Kabat numbering; Selected from the natural diversity library by yeast display; also called N2.17 variant; not shown: His6, C-terminal, kept) VHH: QGQLVESGGGSVQAGGSLRLSCAASGIDSSSYCMGWFRQRPGKEREGVARINGWGGVKTAYADSVKDRFTISRDNAENTVYLQMNSLKPEDTAIYYCAAKSSPGYCGGTWFNFGYWGQGTQVTVSS	–	–	Kd [1]: 13.2 nM
N2 VHH alanine mutant V55 (VHH, PDB 2X6M) with the stated change; Kabat numbering) VHH: QGQLVESGGGSVQAGGSLRLSCAASGIDSSSYCMGWFRQRPGKEREGVARINGLGGAKTAYADSVKDRFTISRDNAENTVYLQMNSLKPEDTAIYYCAAKFSPGYCGGSWSNFGYWGQGTQVTVSS	> 50	–	–
N2 VHH alanine mutant S100f (VHH, PDB 2X6M) with the stated change; Kabat numbering) VHH: QGQLVESGGGSVQAGGSLRLSCAASGIDSSSYCMGWFRQRPGKEREGVARINGLGGVKTAYADSVKDRFTISRDNAENTVYLQMNSLKPEDTAIYYCAAKFSPGYCGGSWANFGYWGQGTQVTVSS	> 50	–	–
N2.12 VHH (VHH, PDB 2X6M) with six CDR mutations; Kabat numbering; Selected from the natural diversity library by yeast display; also called N2.12 variant; not shown: His6, C-terminal, kept) VHH: QGQLVESGGGSVQAGGSLRLSCAASGIDSSSYCMGWFRQRPGKEREGVGRINGWRGIKTAYADSVKDRFTISRDNAENTVYLQMNSLKPEDTAIYYCAAKSSPGYCGGTWSNFGYWGQGTQVTVSS	–	–	Kd [1]: 7.6 nM
N2 VHH alanine mutant F96 (VHH, PDB 2X6M) with the stated change; Kabat numbering) VHH: QGQLVESGGGSVQAGGSLRLSCAASGIDSSSYCMGWFRQRPGKEREGVARINGLGGVKTAYADSVKDRFTISRDNAENTVYLQMNSLKPEDTAIYYCAAKASPGYCGGSWSNFGYWGQGTQVTVSS	> 50	–	–
N2 VHH alanine mutant G100b (VHH, PDB 2X6M) with the stated change; Kabat numbering) VHH: QGQLVESGGGSVQAGGSLRLSCAASGIDSSSYCMGWFRQRPGKEREGVARINGLGGVKTAYADSVKDRFTISRDNAENTVYLQMNSLKPEDTAIYYCAAKFSPGYCAGSWSNFGYWGQGTQVTVSS	> 50	–	–
